By stoichiometry N is commonly meant the number of molecules, sites or subunits per partner or assembly.

This data set deals with the molecule itself. Briefly: SEC. Background: SEC sorts molecules by how far they enter the pores of the column.

B1: NagS (SCO4393), N-acetylglucosamine-6-phosphate dehydratase (enzyme, Streptomyces coelicolor, UniProt Q9K3V1 1-251, looked up)
chain: MSDHKPAGQFLDAAIDLLRRVRDEEADSIEAAGTLLADTVQNGGRLFAFGAGHSSLAAQDVVYRAGGLALMNLLTVPGVVGIDVMPATLGSALERVDGLASAVLDSSPLRAGDALVIISLSGRNALPVEMAMHARALGLRVIGVTSVAYASQTTSRHASGTFLKDHCDIVLDSKIAVGDAELTLDTVPAPFAPASTVVTAALMQAVTATAAATLADRGIEPPLLRSGNVDGGHEWNARVLEQYGERIFYRR
B1: the “stoichiometry N” value was 2.
